Measurements from patent US10562947B2, “Compositions and methods for preventing or treating diseases, conditions or processes characterized by aberrant fibroblast proliferation and extracellular matrix deposition” (MOERAE MATRIX, INC., priority 2011, dated 2020).

Tests used:
Test in all cases: Kinase Profiling Assay
Type in all cases: biochemical
Conditions in all cases: 100 μM peptide
CaMKIIβ(h) = CaMKIIβ(h) (Homo sapiens, UniProt Q13554)
Summary of the method: (§1)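 Specificity of the MK2-directed peptides is examined by measuring activity of 266 human kinases, every determination performed in duplicate.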

MST2(h) = target: T1, MST2(h) (Homo sapiens, UniProt Q13188)
T1 sequence (Q13188 1-491): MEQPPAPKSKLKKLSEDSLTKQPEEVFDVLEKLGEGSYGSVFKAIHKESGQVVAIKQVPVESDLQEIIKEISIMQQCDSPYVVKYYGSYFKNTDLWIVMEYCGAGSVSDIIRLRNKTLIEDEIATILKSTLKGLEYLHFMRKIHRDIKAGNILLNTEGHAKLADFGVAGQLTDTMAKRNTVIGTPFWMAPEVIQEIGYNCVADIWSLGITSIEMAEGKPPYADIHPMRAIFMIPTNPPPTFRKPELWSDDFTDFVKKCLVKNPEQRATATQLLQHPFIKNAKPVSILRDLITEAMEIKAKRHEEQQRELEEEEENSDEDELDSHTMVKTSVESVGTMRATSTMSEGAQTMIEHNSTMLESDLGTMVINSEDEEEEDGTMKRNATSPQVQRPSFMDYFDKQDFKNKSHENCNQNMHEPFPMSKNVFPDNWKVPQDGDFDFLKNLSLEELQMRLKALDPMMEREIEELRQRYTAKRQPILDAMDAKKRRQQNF
Summary of the method: as §1

Rsk1(h) = target: T2, Rsk1(h) (Homo sapiens, UniProt Q15418)
T2 construct: purchased Millipore (IC50 Profiler Express service)
Summary of the method: as §1

IKKα(h) = target: T3, IKKα(h) (Homo sapiens, UniProt O15111)
T3 construct: purchased Millipore
T3 sequence (O15111 1-745): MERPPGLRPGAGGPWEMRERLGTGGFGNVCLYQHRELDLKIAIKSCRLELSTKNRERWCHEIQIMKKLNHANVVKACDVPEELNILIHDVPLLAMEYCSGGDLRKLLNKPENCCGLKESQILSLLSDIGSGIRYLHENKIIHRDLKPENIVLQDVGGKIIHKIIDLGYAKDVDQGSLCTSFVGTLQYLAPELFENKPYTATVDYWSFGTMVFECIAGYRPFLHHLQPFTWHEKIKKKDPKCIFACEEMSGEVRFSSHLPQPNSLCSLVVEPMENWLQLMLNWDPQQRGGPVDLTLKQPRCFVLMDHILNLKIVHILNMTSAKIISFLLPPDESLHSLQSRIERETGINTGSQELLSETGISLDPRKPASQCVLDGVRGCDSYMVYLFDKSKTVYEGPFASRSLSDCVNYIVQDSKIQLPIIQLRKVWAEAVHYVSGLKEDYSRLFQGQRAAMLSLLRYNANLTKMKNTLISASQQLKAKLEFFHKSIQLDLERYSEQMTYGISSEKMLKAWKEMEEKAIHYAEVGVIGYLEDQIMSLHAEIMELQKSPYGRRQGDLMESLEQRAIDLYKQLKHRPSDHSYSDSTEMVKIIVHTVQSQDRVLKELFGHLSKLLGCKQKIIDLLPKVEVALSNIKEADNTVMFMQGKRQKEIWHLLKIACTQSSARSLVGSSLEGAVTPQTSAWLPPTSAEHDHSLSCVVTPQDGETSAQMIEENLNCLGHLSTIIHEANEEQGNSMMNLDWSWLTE
Summary of the method: as §1

EphB4(h) = target: T4, EphB4(h) (Homo sapiens, UniProt P54760)
T4 sequence (P54760 16-987): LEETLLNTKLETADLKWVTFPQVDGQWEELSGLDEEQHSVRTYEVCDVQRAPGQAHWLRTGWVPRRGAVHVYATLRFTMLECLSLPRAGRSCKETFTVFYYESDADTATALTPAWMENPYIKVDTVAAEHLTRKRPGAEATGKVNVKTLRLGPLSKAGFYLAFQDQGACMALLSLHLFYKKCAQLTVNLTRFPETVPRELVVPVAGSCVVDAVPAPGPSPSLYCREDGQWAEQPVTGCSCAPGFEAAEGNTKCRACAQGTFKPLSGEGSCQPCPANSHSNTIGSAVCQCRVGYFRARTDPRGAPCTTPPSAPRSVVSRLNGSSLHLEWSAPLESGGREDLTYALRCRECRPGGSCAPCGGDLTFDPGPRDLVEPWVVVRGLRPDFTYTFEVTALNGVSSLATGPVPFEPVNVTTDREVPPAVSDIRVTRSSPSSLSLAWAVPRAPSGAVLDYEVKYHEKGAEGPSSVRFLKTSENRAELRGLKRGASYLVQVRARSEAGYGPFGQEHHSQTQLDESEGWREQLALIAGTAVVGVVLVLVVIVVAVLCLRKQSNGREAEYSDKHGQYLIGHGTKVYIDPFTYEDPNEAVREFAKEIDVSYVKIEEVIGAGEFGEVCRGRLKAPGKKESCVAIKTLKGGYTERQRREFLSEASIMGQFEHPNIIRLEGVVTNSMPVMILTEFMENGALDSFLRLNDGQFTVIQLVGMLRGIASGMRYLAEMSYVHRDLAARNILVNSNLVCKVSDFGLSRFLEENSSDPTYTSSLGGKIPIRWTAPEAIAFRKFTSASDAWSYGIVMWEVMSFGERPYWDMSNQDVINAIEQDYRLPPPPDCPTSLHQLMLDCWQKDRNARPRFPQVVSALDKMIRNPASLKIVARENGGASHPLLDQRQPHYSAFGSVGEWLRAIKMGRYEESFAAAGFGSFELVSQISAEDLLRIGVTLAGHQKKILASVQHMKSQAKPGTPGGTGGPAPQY
Summary of the method: as §1

PTK5(h) = target: T5, PTK5(h) (Homo sapiens, UniProt P42685)
T5 construct: purchased Millipore (IC50 Profiler Express service)
Summary of the method: as §1

CaMKIδ(h) = CaMKIδ(h) (Homo sapiens, UniProt Q8IU85)
Summary of the method: as §1

PASK(h) = PASK(h) (Homo sapiens, UniProt Q96RG2)
Summary of the method: as §1

CaMKIIβ(h), sequence (Q13554 whole entry): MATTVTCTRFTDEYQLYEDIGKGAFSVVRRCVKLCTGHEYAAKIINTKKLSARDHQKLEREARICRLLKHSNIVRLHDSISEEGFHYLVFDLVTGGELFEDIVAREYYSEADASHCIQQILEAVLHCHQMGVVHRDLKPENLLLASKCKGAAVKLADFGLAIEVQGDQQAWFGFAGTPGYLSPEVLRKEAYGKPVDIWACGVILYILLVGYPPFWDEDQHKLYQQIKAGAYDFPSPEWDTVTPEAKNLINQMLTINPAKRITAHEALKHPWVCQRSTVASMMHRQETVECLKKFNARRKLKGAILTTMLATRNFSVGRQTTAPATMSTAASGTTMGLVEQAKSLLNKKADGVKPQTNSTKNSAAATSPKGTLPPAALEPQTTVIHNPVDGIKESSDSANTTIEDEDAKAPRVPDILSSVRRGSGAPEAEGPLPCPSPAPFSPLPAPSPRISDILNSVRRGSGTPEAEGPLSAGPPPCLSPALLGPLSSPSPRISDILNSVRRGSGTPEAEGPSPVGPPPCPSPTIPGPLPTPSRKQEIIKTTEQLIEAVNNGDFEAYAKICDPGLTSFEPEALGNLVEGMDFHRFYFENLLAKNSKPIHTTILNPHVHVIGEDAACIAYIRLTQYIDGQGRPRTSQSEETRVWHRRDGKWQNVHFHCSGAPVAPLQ
T5 sequence (P42685 whole entry): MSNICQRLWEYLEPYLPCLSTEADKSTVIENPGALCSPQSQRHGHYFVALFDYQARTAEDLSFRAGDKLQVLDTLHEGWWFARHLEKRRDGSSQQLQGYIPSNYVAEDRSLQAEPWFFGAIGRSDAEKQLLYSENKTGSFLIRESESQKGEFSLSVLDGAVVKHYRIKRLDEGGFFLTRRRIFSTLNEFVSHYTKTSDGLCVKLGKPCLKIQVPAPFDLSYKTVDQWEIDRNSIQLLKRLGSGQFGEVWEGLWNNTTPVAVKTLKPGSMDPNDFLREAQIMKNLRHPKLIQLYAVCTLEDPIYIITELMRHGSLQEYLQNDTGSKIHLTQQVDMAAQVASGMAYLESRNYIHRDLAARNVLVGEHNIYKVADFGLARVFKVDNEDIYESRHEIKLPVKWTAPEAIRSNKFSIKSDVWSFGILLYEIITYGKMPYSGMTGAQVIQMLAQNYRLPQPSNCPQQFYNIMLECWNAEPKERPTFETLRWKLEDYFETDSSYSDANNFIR
CaMKIδ(h), sequence (Q8IU85 whole entry): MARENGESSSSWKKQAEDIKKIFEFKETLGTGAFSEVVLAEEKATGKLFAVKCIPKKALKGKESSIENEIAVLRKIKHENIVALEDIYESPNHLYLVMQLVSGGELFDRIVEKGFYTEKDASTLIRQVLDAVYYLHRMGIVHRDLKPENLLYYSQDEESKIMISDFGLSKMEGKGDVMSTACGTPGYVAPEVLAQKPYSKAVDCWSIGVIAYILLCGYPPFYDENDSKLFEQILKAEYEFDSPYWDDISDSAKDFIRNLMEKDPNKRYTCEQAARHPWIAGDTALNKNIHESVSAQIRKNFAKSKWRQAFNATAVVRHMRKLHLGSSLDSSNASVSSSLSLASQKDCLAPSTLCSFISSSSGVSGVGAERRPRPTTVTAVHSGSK
T2 sequence (Q15418 whole entry): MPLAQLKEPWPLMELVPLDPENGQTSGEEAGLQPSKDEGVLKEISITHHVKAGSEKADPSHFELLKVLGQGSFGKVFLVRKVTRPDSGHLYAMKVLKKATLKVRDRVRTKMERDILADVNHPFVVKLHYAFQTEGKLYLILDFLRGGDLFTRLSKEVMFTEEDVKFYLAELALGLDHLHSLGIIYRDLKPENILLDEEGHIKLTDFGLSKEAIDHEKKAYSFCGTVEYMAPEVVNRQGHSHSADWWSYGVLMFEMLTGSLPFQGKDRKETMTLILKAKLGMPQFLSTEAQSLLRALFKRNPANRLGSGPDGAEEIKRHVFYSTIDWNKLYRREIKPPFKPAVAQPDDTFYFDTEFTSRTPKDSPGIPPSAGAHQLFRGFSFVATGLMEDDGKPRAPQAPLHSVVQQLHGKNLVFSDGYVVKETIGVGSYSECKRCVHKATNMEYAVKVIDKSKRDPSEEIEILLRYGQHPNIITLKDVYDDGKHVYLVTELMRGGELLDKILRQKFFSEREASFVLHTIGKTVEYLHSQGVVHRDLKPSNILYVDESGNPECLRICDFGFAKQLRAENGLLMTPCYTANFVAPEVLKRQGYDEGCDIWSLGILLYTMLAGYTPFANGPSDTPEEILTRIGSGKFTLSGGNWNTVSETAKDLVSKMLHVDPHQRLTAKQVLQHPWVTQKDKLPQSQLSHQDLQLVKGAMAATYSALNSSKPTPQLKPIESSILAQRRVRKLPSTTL
PASK(h), sequence (Q96RG2 whole entry): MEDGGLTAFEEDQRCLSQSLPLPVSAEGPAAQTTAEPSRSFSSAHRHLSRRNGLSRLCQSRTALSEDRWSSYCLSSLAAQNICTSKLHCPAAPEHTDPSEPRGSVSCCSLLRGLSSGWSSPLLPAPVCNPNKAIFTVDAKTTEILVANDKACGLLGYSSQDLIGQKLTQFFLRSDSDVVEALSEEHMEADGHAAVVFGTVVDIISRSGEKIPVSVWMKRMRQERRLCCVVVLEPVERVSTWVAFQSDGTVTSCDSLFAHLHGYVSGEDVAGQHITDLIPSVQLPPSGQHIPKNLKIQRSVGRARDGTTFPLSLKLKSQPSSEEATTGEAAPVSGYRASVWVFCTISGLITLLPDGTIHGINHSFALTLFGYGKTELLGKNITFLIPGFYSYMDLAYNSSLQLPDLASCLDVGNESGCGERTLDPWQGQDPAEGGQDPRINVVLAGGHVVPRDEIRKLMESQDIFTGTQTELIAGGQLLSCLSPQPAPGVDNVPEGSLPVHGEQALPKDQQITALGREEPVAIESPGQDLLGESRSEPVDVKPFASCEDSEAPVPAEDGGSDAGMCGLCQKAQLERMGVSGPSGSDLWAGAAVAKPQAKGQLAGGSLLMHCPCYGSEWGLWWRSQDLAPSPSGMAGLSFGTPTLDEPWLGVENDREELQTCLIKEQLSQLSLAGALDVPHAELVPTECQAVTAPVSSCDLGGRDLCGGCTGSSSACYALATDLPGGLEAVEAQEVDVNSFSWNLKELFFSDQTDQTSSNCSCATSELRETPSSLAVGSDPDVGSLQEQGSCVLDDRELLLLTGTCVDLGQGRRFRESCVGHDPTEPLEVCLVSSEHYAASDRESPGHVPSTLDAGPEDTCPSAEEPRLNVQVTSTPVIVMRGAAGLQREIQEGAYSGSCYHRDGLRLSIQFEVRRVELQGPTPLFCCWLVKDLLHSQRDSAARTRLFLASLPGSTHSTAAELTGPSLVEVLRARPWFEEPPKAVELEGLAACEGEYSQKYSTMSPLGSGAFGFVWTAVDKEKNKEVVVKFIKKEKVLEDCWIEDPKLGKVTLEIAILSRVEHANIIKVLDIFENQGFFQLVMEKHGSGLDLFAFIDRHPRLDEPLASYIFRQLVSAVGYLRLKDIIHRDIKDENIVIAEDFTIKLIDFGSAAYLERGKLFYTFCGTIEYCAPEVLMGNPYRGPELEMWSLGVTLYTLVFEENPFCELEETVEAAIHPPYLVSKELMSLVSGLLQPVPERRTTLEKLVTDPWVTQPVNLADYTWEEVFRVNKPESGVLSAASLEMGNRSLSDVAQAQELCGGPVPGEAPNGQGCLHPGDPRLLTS

Row | Sequence | CaMKIIβ(h) % activity (CaMKIIβ(h)) | MST2(h) % activity (MST2(h)) | Rsk1(h) % activity (Rsk1(h)) | IKKα(h) % activity (IKKα(h)) | EphB4(h) % activity (EphB4(h)) | PTK5(h) % activity (PTK5(h)) | CaMKIδ(h) % activity (CaMKIδ(h)) | PASK(h) % activity (PASK(h))
1 | FAKLAARLYRKALARQLGVAA [MMI-0300] | 2% | 19% | 46% | 93% | 44% | 132% | 10% | 29%
2 | KAFAKLAARLYRKALARQLGVAA [MMI-0400] | 11% | 11% | 54% | 87% | 28% | 129% | 17% | 28%
3 | YARAAARQARAKALNRQLGVA (Mammalian) [MMI-0200] | 53% |  |  |  | 131% | 108% | 47% | 60%
4 | HRRIKAWLKKIKALARQLGVAA (Mammalian) [MMI-0500] | 3% | 2% | 34% | 50% | 38% | 96% | 0% | 9%
